Laboratory results reported in patent US20010039016, “Use of expression profiling for identifying molecular markers useful for diagnosis of metastatic cancer” (published 2001).
Numbering of substitutions follows the chain as printed.

Legend:
[1] = molecular target: T1, Cdx2 (Mus musculus, UniProt P43241 P43241:1-311); test: EMSA; supershifted by anti-Cdx2, 10 mM Tris pH 7.5, 50 mM NaCl, 2.5 mM MgCl2, room temp; conditions: tags: pRc/CMV-Cdx2, TNT Quick-coupled (Promega); label: 32P 5'-end
T1 sequence: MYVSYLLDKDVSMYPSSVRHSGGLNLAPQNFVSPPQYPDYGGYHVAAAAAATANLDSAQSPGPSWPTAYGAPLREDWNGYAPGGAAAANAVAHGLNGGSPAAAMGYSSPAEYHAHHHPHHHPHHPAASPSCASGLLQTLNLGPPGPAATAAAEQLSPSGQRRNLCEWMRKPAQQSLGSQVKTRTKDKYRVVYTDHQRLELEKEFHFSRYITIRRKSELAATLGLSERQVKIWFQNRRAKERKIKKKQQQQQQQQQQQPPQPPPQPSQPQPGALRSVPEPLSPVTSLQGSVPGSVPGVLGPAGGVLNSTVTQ
Method: (§1) Electromobility Shift Assay (EMSA). Protein-DNA binding reactions performed in the same buffer as the DNase I protection assay (4% glycerol, 10 mM Tris-HCl (pH 7.5) 50 mM NaCl, 2.5 mM MgCl₂ and 5 mM DTT) included […] of Poly(dI.dC)-Poly(dI.dC) (Amersham Pharmacia Biotech, Piscataway, N.J.) and 30 kcpm of probe. Reactions were initiated by the addition of nuclear extract and incubated for 30 min at room temp to produce protein complexes which were separated on a 6% non-denaturing, polyacrylamide (37.5:1) gel in 0.5× TBE running buffer. Gels were dried prior to visualization of radiolabelled complexes by autoradiography. In competition assays, unlabelled competitor was added to the reaction mixtures at concentrations ranging from 25-fold to 250-fold molar excess of the labeled probe prior to the addition of the nuclear extract. Supershift assays were performed by adding […] of murine Cdx2 antibody after an initial incubation period of 30 min; incubation was then continued for an additional 30 min. Transcribed and translated murine Cdx2 protein was generated in vitro using linearized pRc/CMV-Cdx2 expression vector as a template for the TNT-Quickcoupled Kit (Promega).
(§2) Cdx2 binds specifically to the FP1 probe. To determine whether FP1 is a binding site for Cdx2, labeled FP1 was incubated with in vitro transcribed and translated murine Cdx2. […]

[2] = molecular target: T1, Cdx2; test: EMSA; no specific complex formed; conditions: tags: pRc/CMV-Cdx2, TNT Quick-coupled (Promega); label: 32P 5'-end
Method: as §1, §2

B1: FP1 (dsDNA)
DNA 1: CAGCTAATCTCTCTGTTTATAGCTCTGACCTTTC
DNA 2: GAAAGGTCAGAGCTATAAACAGAGAGATTAGCTG
binding result [1]: binds

B2: FP1-CCC (dsDNA)
DNA 1: B1 DNA 1 with T16C, T17C, T18C
DNA 2: B1 DNA 2 with A17G, A18G, A19G
binding result [2]: no binding
